Reference: the supplement of paper PMC5998384

Key:
[1] = system: HeLa Kyoto; assay: solubility change mitosis vs G1/S (difference of NP-40 vs SDS log2 ratios) (log2 ratio difference); higher = more soluble in mitosis
[2] = system: HeLa Kyoto; assay: melting temperature (median over replicates), in situ; higher = more thermally stable
[3] = system: HeLa Kyoto; assay: solubility in G1/S (NP-40 vs SDS abundance) (log2 ratio); higher = more soluble; settings: cell cycle stage: G1/S
[4] = system: HeLa Kyoto; assay: thermal stability score vs G1/S (z-score of summed log2 fold changes over temperatures); higher = more thermally stable than in G1/S
[5] = cell cycle stage: early G1 (4.5 h after nocodazole release)
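Wherever melting temperature (median over replicates), in situ is given: HeLa Kyoto cells synchronized by double thymidine or nocodazole block, proteins quantified by TMT10plex mass spectrometry, three independent biological replicates.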
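Wherever solubility change mitosis vs G1/S (difference of NP-40 vs SDS log2 ratios) is given: synchronized HeLa Kyoto cells (double thymidine block for G1/S, nocodazole release for mitosis), protein amounts in NP-40 versus SDS lysates quantified by mass spectrometry, three biological replicates.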
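Wherever solubility in G1/S (NP-40 vs SDS abundance) is given: HeLa Kyoto cells arrested at G1/S by double thymidine block, proteins quantified by TMT10plex mass spectrometry in mild NP-40 versus SDS extracts, three biological replicates.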
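Wherever thermal stability score vs G1/S (z-score of summed log2 fold changes over temperatures) is given: synchronized HeLa Kyoto cells, proteins quantified by TMT10plex mass spectrometry, three biological replicates, mitosis taken 0.5 h after nocodazole release, G1/S directly after double thymidine block.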

Chain of PCYT1A (chain, as listed by the source): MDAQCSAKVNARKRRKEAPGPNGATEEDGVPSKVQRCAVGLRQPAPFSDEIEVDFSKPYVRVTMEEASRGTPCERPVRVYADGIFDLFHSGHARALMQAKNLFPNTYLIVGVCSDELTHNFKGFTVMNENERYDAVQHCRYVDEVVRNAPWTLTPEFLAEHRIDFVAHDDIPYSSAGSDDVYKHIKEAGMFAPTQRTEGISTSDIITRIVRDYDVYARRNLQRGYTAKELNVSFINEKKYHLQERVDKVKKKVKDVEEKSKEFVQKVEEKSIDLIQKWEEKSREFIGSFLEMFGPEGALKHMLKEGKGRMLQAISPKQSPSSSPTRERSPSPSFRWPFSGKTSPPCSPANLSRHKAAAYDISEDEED
Chain of TSC2 (chain, as listed by the source): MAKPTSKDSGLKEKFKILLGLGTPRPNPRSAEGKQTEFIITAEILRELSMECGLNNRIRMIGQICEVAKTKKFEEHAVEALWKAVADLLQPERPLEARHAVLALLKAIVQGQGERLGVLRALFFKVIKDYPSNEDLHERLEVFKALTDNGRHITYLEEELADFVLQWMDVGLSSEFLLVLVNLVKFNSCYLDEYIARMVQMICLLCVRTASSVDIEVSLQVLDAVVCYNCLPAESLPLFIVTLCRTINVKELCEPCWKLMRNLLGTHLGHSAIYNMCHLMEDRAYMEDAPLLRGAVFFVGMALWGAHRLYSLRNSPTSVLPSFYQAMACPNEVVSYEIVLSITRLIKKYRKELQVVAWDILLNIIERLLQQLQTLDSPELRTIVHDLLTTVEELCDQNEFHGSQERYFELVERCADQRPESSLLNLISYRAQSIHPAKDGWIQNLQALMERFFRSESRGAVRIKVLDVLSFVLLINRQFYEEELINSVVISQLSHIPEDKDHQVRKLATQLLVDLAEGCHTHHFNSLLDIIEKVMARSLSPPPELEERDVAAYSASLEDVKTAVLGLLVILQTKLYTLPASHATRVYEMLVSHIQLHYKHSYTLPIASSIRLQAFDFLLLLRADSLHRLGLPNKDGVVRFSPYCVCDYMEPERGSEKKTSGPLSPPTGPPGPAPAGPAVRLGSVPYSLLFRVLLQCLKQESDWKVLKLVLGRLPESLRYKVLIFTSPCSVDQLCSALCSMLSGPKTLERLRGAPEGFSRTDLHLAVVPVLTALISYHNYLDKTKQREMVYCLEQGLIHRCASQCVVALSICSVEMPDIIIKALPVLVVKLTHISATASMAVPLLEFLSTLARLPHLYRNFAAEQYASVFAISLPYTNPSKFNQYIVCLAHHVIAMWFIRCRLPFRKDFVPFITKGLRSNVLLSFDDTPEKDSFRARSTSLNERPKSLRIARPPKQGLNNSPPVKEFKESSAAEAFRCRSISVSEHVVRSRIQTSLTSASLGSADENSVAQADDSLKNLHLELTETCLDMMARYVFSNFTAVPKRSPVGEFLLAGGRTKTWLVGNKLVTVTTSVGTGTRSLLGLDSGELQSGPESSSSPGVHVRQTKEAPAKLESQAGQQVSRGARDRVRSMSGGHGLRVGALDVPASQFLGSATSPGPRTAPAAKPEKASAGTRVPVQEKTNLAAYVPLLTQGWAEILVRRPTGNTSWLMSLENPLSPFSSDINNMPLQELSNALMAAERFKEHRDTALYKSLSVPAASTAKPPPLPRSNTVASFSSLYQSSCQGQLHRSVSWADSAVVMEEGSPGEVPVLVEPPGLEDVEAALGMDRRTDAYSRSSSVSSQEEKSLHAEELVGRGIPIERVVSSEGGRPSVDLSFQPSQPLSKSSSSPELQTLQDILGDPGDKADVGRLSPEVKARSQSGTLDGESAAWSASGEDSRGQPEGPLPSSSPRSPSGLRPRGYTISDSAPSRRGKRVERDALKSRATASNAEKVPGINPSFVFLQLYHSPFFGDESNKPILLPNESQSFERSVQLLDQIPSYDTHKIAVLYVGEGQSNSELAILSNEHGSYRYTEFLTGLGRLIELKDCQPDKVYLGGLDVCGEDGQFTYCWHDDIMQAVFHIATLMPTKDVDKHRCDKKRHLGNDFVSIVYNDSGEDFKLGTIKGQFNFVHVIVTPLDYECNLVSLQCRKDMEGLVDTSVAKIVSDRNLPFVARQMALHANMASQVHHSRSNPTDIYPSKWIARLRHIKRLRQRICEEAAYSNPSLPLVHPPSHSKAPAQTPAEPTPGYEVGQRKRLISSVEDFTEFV

Substance | solubility change mitosis (log2) [1] | melting temperature ([2]; cell cycle stage: G1/S) [°C] | melting temperature ([2]; cell cycle stage: mitosis) [°C] | solubility in G1/S (log2) [3] | thermal stability score [4, 5] | thermal stability score ([4]; cell cycle stage: mitosis)
MSRPPPTGKMPGAPETAPGDGAGASRQRKLEALIRDPRSPINVESLLDGLNSLVLDLDFPALRKNKNIDNFLNRYEKIVKKIRGLQMKAEDYDVVKVIGRGAFGEVQLVRHKASQKVYAMKLLSKFEMIKRSDSAFFWEERDIMAFANSPWVVQLFYAFQDDRYLYMVMEYMPGGDLVNLMSNYDVPEKWAKFYTAEVVLALDAIHSMGLIHRDVKPDNMLLDKHGHLKLADFGTCMKMDETGMVHCDTAVGTPDYISPEVLKSQGGDGFYGRECDWWSVGVFLYEMLVGDTPFYADSLVGTYSKIMDHKNSLCFPEDAEISKHAKNLICAFLTDREVRLGRNGVEEIRQHPFFKNDQWHWDNIRETAAPVVPELSSDIDSSNFDDIEDDKGDVETFPIPKAFVGNQLPFIGFTYYRENLLLSDSPSCRETDSIQSRKNEESQEIQKKLYTLEEHLSNEMQAKEELEQKCKSVNTRLEKTAKELEEEITLRKSVESALRQLEREKALLQHKNAEYQRKADHEADKKRNLENDVNSLKDQLEDLKKRNQNSQISTEKVNQLQRQLDETNALLRTESDTAARLRKTQAESSKQIQQLESNNRDLQDKNCLLETAKLKLEKEFINLQSALESERRDRTHGSEIINDLQGRICGLEEDLKNGKILLAKVELEKRQLQERFTDLEKEKSNMEIDMTYQLKVIQQSLEQEEAEHKATKARLADKNKIYESIEEAKSEAMKEMEKKLLEERTLKQKVENLLLEAEKRCSLLDCDLKQSQQKINELLKQKDVLNEDVRNLTLKIEQETQKRCLTQNDLKMQTQQVNTLKMSEKQLKQENNHLMEMKMNLEKQNAELRKERQDADGQMKELQDQLEAEQYFSTLYKTQVRELKEECEEKTKLGKELQQKKQELQDERDSLAAQLEITLTKADSEQLARSIAEEQYSDLEKEKIMKELEIKEMMARHKQELTEKDATIASLEETNRTLTSDVANLANEKEELNNKLKDVQEQLSRLKDEEISAAAIKAQFEKQLLTERTLKTQAVNKLAEIMNRKEPVKRGNDTDVRRKEKENRKLHMELKSEREKLTQQMIKYQKELNEMQAQIAEESQIRIELQMTLDSKDSDIEQLRSQLQALHIGLDSSSIGSGPGDAEADDGFPESRLEGWLSLPVRNNTKKFGWVKKYVIVSSKKILFYDSEQDKEQSNPYMVLDIDKLFHVRPVTQTDVYRADAKEIPRIFQILYANEGESKKEQEFPVEPVGEKSNYICHKGHEFIPTLYHFPTNCEACMKPLWHMFKPPPALECRRCHIKCHKDHMDKKEEIIAPCKVYYDISTAKNLLLLANSTEEQQKWVSRLVKKIPKKPPAPDPFARSSPRTSMKIQQNQSIRRPSRQLAPNKPS [ROCK2] | -0.132 | 49.8 | 49.4 | 0.0267 | 0.406 | 1.46
MEAARTAVLRVKRKRSAEPAEALVLACKRLRSDAVESAAQKTSEGLERAAENNVFHLVATVCSQEEPVQPLLREVLRPSRDSQQRVRRNLRASAREVRQEGRYRVLSSRRSLGTTSSGQESEYTPGNPEAAGNSGFQLLDLVHEEGEPEAASAGSCKTSDPDVILCNSVELIRERLTVSEDGPGVRRQEEQKHDDYVYDIYYLETATPGWIENILSVQPYSQEWELVNDDQEPEDIYDDEDDENSENNWRNEYPEEESSDGDEDSRGSADYNSLSEEERGSSRQRMWSKYPLDVQKEFGYDSPHDLDSD [SLC7A6OS] | -0.117 | 52.4 | 54 | 0.343 | -0.0342 | 0.677
PCYT1A | -0.0895 | 51.4 | 52.4 | 0.341 | 2.25 | 3.79
MFVELNNLLNTTPDRAEQGKLTLLCDAKTDGSFLVHHFLSFYLKANCKVCFVALIQSFSHYSIVGQKLGVSLTMARERGQLVFLEGLKSAVDVVFQAQKEPHPLQFLREANAGNLKPLFEFVREALKPVDSGEARWTYPVLLVDDLSVLLSLGMGAVAVLDFIHYCRATVCWELKGNMVVLVHDSGDAEDEENDILLNGLSHQSHLILRAEGLATGFCRDVHGQLRILWRRPSQPAVHRDQSFTYQYKIQDKSVSFFAKGMSPAVL [ELP6] | -0.245 | 55.1 | 54.4 | -0.082 | -0.431 | -1.3
MPGKLLWGDIMELEAPLEESESQKKERQKSDRRKSRHHYDSDEKSETRENGVTDDLDAPKAKKSKMKEKLNGDTEEGFNRLSDEFSKSHKSRRKDLPNGDIDEYEKKSKRVSSLDTSTHKSSDNKLEETLTREQKEGAFSNFPISEETIKLLKGRGVTYLFPIQVKTFGPVYEGKDLIAQARTGTGKTFSFAIPLIERLQRNQETIKKSRSPKVLVLAPTRELANQVAKDFKDITRKLSVACFYGGTSYQSQINHIRNGIDILVGTPGRIKDHLQSGRLDLSKLRHVVLDEVDQMLDLGFAEQVEDIIHESYKTDSEDNPQTLLFSATCPQWVYKVAKKYMKSRYEQVDLVGKMTQKAATTVEHLAIQCHWSQRPAVIGDVLQVYSGSEGRAIIFCETKKNVTEMAMNPHIKQNAQCLHGDIAQSQREITLKGFREGSFKVLVATNVAARGLDIPEVDLVIQSSPPQDVESYIHRSGRTGRAGRTGICICFYQPRERGQLRYVEQKAGITFKRVGVPSTMDLVKSKSMDAIRSLASVSYAAVDFFRPSAQRLIEEKGAVDALAAALAHISGASSFEPRSLITSDKGFVTMTLESLEEIQDVSCAWKELNRKLSSNAVSQITRMCLLKGNMGVCFDVPTTESERLQAEWHDSDWILSVPAKLPEIEEYYDGNTSSNSRQRSGWSSGRSGRSGRSGGRSGGRSGRQSRQGSRSGSRQDGRRRSGNRNRSRSGGHKRSFD [DDX50] | 0.879 |  | 50.4 | -1.4 | 1.27 | 2.08
MSLRKQTPSDFLKQIIGRPVVVKLNSGVDYRGVLACLDGYMNIALEQTEEYVNGQLKNKYGDAFIRGNNVLYISTQKRRM [LSM6] | 0.276 | 57.7 | 54 | 0.0787 | -1.66 | -2.63
WIZ | 0.321 | 50.4 | 50.8 | -0.0213 | 0.511 | -0.305
MSGFDDPGIFYSDSFGGDAQADEGQARKSQLQRRFKEFLRQYRVGTDRTGFTFKYRDELKRHYNLGEYWIEVEMEDLASFDEDLADYLYKQPAEHLQLLEEAAKEVADEVTRPRPSGEEVLQDIQVMLKSDASPSSIRSLKSDMMSHLVKIPGIIIAASAVRAKATRISIQCRSCRNTLTNIAMRPGLEGYALPRKCNTDQAGRPKCPLDPYFIMPDKCKCVDFQTLKLQELPDAVPHGEMPRHMQLYCDRYLCDKVVPGNRVTIMGIYSIKKFGLTTSRGRDRVGVGIRSSYIRVLGIQVDTDGSGRSFAGAVSPQEEEEFRRLAALPNVYEVISKSIAPSIFGGTDMKKAIACLLFGGSRKRLPDGLTRRGDINLLMLGDPGTAKSQLLKFVEKCSPIGVYTSGKGSSAAGLTASVMRDPSSRNFIMEGGAMVLADGGVVCIDEFDKMREDDRVAIHEAMEQQTISIAKAGITTTLNSRCSVLAAANSVFGRWDETKGEDNIDFMPTILSRFDMIFIVKDEHNEERDVMLAKHVITLHVSALTQTQAVEGEIDLAKLKKFIAYCRVKCGPRLSAEAAEKLKNRYIIMRSGARQHERDSDRRSSIPITVRQLEAIVRIAEALSKMKLQPFATEADVEEALRLFQVSTLDAALSGTLSGVEGFTSQEDQEMLSRIEKQLKRRFAIGSQVSEHSIIKDFTKQKYPEHAIHKVLQLMLRRGEIQHRMQRKVLYRLK [MCM5] | -0.0997 | 51.9 | 51.4 | -0.322 | 1.16 | 0.714
TSC2 | -0.0844 | 49.6 | 50.9 | -0.16 | 0.00265 | 0.786
MGLLSQGSPLSWEETKRHADHVRRHGILQFLHIYHAVKDRHKDVLKWGDEVEYMLVSFDHENKKVRLVLSGEKVLETLQEKGERTNPNHPTLWRPEYGSYMIEGTPGQPYGGTMSEFNTVEANMRKRRKEATSILEENQALCTITSFPRLGCPGFTLPEVKPNPVEGGASKSLFFPDEAINKHPRFSTLTRNIRHRRGEKVVINVPIFKDKNTPSPFIETFTEDDEASRASKPDHIYMDAMGFGMGNCCLQVTFQACSISEARYLYDQLATICPIVMALSAASPFYRGYVSDIDCRWGVISASVDDRTREERGLEPLKNNNYRISKSRYDSIDSYLSKCGEKYNDIDLTIDKEIYEQLLQEGIDHLLAQHVAHLFIRDPLTLFEEKIHLDDANESDHFENIQSTNWQTMRFKPPPPNSDIGWRVEFRPMEVQLTDFENSAYVVFVVLLTRVILSYKLDFLIPLSKVDENMKVAQKRDAVLQGMFYFRKDICKGGNAVVDGCGKAQNSTELAAEEYTLMSIDTIINGKEGVFPGLIPILNSYLENMEVDVDTRCSILNYLKLIKKRASGELMTVARWMREFIANHPDYKQDSVITDEMNYSLILKCNQIANELCECPELLGSAFRKVKYSGSKTDSSN [GCLC] | -0.172 | 52 | 51.8 | 0.0288 | -0.677 | -1.1
MPAGPVQAVPPPPPVPTEPKQPTEEEASSKEDSAPSKPVVGIIYPPPEVRNIVDKTASFVARNGPEFEARIRQNEINNPKFNFLNPNDPYHAYYRHKVSEFKEGKAQEPSAAIPKVMQQQQQTTQQQLPQKVQAQVIQETIVPKEPPPEFEFIADPPSISAFDLDVVKLTAQFVARNGRQFLTQLMQKEQRNYQFDFLRPQHSLFNYFTKLVEQYTKILIPPKGLFSKLKKEAENPREVLDQVCYRVEWAKFQERERKKEEEEKEKERVAYAQIDWHDFVVVETVDFQPNEQGNFPPPTTPEELGARILIQERYEKFGESEEVEMEVESDEEDDKQEKAEEPPSQLDQDTQVQDMDEGSDDEEEGQKVPPPPETPMPPPLPPTPDQVIVRKDYDPKASKPLPPAPAPDEYLVSPITGEKIPASKMQEHMRIGLLDPRWLEQRDRSIREKQSDDEVYAPGLDIESSLKQLAERRTDIFGVEETAIGKKIGEEEIQKPEEKVTWDGHSGSMARTQQAAQANITLQEQIEAIHKAKGLVPEDDTKEKIGPSKPNEIPQQPPPPSSATNIPSSAPPITSVPRPPTMPPPVRTTVVSAVPVMPRPPMASVVRLPPGSVIAPMPPIIHAPRINVVPMPPSAPPIMAPRPPPMIVPTAFVPAPPVAPVPAPAPMPPVHPPPPMEDEPTSKKLKTEDSLMPEEEFLRRNKGPVSIKVQVPNMQDKTEWKLNGQVLVFTLPLTDQVSVIKVKIHEATGMPAGKQKLQYEGIFIKDSNSLAYYNMANGAVIHLALKERGGRKK [SF3A1] | 0.18 | 49.8 | 50.2 | -0.0723 | -0.95 | 1.92
MVSRVQLPPEIQLAQRLAGNEQVTRDRAVRKLRKYIVARTQRAAGGFTHDELLKVWKGLFYCMWMQDKPLLQEELGRTISQLVHAFQTTEAQHLFLQAFWQTMNREWTGIDRLRLDKFYMLMRMVLNESLKVLKMQGWEERQIEELLELLMTEILHPSSQAPNGVKSHFIEIFLEELTKVGAEELTADQNLKFIDPFCRIAARTKDSLVLNNITRGIFETIVEQAPLAIEDLLNELDTQDEEVASDSDESSEGGERGDALSQKRSEKPPAGSICRAEPEAGEEQAGDDRDSGGPVLQFDYEAVANRLFEMASRQSTPSQNRKRLYKVIRKLQDLAGGIFPEDEIPEKACRRLLEGRRQKKTKKQKRLLRLQQERGKGEKEPPSPGMERKRSRRRGVGADPEARAEAGEQPGTAERALLRDQPRGRGQRGARQRRRTPRPLTSARAKAANVQEPEKKKKRRE [RRP1] | 0.797 | 46.6 | 48.8 | -1.24 | 2.67 | 7.98
